Measurements: article PMC11181998

Assays:
ACE2 receptor [1] = biological target: ACE2 receptor (UniProt Q9BYF1); assay: ELISA; competitive ELISA of ACE2 binding; AH-adsorbed DCFHP incubated overnight at 50 °C, against a reference freshly adsorbed to AH
ACE2 receptor [2] = biological target: ACE2 receptor (UniProt Q9BYF1); assay: ELISA; competitive ELISA of ACE2 binding; AH-adsorbed DCFHP incubated overnight at 40 °C, against a reference freshly adsorbed to AH
ACE2 receptor [3] = biological target: ACE2 receptor (UniProt Q9BYF1); assay: ELISA; competitive ELISA of ACE2 binding; DCFHP samples (in solution, or with AH and 0, 20 or 200 mM sodium phosphate) stored at 4 °C (3-21 days, 1 month, or up to 4 weeks) before the assay
ACE2 receptor [4] = biological target: ACE2 receptor (UniProt Q9BYF1); assay: ELISA; competitive ELISA of ACE2 binding; DCFHP at 50 mcg/mL in 20 mM Tris, 150 mM NaCl, 5% Sucrose, pH 7.5, in solution or adsorbed to 1.5 mg/mL Alhydrogel (AH); time zero or freshly adsorbed; read against a DCFHP reference sample; who was immobilised is told only in the Supplemental methods

Sequence of UniProt Q9BYF1 (Q9BYF1 18-740 limits assumed): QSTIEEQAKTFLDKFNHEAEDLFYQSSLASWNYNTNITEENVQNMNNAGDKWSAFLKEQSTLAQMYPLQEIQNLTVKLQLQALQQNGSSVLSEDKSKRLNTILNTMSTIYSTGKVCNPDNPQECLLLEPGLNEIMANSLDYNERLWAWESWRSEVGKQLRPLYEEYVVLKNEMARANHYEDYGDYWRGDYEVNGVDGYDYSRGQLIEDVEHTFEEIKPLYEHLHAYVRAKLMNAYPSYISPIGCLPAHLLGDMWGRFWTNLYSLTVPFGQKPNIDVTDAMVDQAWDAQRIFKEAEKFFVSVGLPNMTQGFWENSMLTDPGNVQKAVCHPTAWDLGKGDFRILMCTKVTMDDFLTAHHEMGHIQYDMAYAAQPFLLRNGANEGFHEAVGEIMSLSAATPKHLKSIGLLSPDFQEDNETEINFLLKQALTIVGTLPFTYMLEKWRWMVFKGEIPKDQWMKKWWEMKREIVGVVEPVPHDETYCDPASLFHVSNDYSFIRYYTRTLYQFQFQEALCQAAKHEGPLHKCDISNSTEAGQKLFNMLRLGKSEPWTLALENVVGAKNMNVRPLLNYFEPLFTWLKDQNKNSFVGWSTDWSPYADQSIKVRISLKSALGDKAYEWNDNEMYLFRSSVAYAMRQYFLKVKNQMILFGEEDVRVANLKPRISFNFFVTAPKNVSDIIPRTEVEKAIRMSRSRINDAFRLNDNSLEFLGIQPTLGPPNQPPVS

For “Delta-C70-Ferritin-HexaPro (DCFHP), SARS-CoV-2 spike ferritin nanoparticle vaccine antigen, produced in Expi293 cells”, which loss of ACE2 binding after overnight at 50 °C (ACE2 receptor [1]) is on record?
The loss of ACE2 binding after overnight at 50 °C was 80%.

What about the loss of ACE2 binding after overnight at 40 °C (ACE2 receptor [2]) of the same substance?
The loss of ACE2 binding after overnight at 40 °C was 60%.

What about the native antigen by ACE2 competitive ELISA after 1 month at 4 °C, AH with 0 mM phosphate (ACE2 receptor [3]) of the same substance?
The native antigen by ACE2 competitive ELISA after 1 month at 4 °C, AH with 0 mM phosphate was 80 µg.

And the native antigen by ACE2 competitive ELISA after 1 month at 4 °C, AH with 200 mM phosphate (ACE2 receptor [3])?
The native antigen by ACE2 competitive ELISA after 1 month at 4 °C, AH with 200 mM phosphate was 50 µg.

What about the native antigen concentration by ACE2 competitive ELISA (target 50 mcg/mL), AH-adsorbed, stored at 4 °C for 3-21 days (ACE2 receptor [3]) of the same substance?
Its native antigen concentration by ACE2 competitive ELISA (target 50 mcg/mL), AH-adsorbed, stored at 4 °C for 3-21 days is 75 µg/mL.

And the native antigen concentration by ACE2 competitive ELISA (target 50 mcg/mL), freshly adsorbed to AH, time zero (ACE2 receptor [4])?
The native antigen concentration by ACE2 competitive ELISA (target 50 mcg/mL), freshly adsorbed to AH, time zero was 48 µg/mL.
